{"source": "patent US8835136B2", "about": "“Engineered amine dehydrogenases and methods of use thereof” (Georgia Tech Research Corporation, priority 2012, dated 2014)", "molecules": {"B1": {"name": "K77S N276L: PheDH-AmDH double variant, SEQ ID NO:2; PheDH library 1 hit 1H4 (protein)", "chain": "SLVEKTSIIKDFTLFEKMSEHEQVVFCNDPATGLRAIIAIHDTTLGPALGGCRMQPYNSVEEALEDALRLSKGMTYSCAASDVDFGGGKAVIIGDPQKDKSPELFRAFGQFVDSLGGRFYTGTDMGTNMEDFIHAMKETNCIVGVPEAYGGGGDSSIPTAMGVLYGIKATNKMLFGKDDLGGVTYAIQGLGKVGYKVAEGLLEEGAHLFVTDINEQTLEAIQEKAKTTSGSVTVVASDEIYSQEADVFVPCAFGGVVNDETMKQFKVKAIAGSANLQLLTEDHGRHLADKGILYAPDYIVNSGGLIQVADELYEVNKERVLAKTKHIYDAILEVYQQAELDQITTMEAANRMCEQRMAARGRRNSFFTSSVKPKWDIRN"}}, "format_in_all_cases": "biochemical", "key": {"[1]": {"experiment": "Reductive amination, spectrophotometric assay at 340 nm", "conditions": "500 mM NH4Cl/NH4OH pH 9.6, 200 μM NADH, 20 mM, 25° C.", "method": "(§1) Activity of purified proteins was measured using a spectrophotometric assay at 340 nm, corresponding to the cofactor nicotinamide adenine dinucleotide (NADH, ε340=6220 M^−1 cm^−1) (Dawson, et al., Clarendon Press, (1989). For reductive amination, reactions took place in 500 mM NH4Cl/NH4OH at pH 9.6, with 200 μM NADH and 20 mM of the ketone substrate, unless otherwise specified. For oxidative deamination, reactions took place in 0.1 M NaHCO3/Na2CO3 buffer at pH 10.0, with 1 mM NAD+ with 10 mM of the amine substrate of interest. All reactions were performed at 25° C. unless otherwise specified. Enzyme was added in 10 μL aliquots in dilute concentrations. Enzyme concentrations varied upon activity levels with the substrate present, but were dilute enough to ensure linear conversion kinetics over the analytical time period (10 min to 30 min). Specific activities were then calculated from the stoichiometric conversion of cofactor as determine by the change in absorbance at 340 nm over time."}, "[2]": {"experiment": "Reductive amination of PFPA, spectrophotometric assay at 340 nm", "method": "as §1\n(§2) The activity of the purified protein was evaluated using a spectrophotometric assay at 340 nm as described in Section 3.2.3 at 25° C. in various concentrations of NH4Cl/NH4OH buffer pH 9.6.\nActive variants were identified by the rate of change in absorbance at 340 nm, corresponding to the fastest activity. […] Some variants consumed the cofactor too quickly (<5 min) to be observed over multiple time points, and gave low absorbance in the initial time point. These variants were included for further characterization. The successful variants were sequenced (MWG Operon), and each unique sequence was expressed in pET28a/BL21 for histag purification and determination of kcat and KM values with PFPA."}, "[3]": {"experiment": "Reductive amination, spectrophotometric assay at 340 nm", "conditions": "500 mM NH4Cl/NH4OH pH 9.6, 200 μM NADH, 20 mM, 25° C.", "method": "as §1, §2", "remark": "listed apart in the source"}}, "note": "Several values for one entry are separate records, joined by “and”; a condition that tells them apart may be missing. Equal values may be shown once. Read-outs that look alike come from different tables or passages of the source.", "data": [{"molecule": "B1", "values": [{"measurement": "Activity, MIBK", "setting": "[1]", "value": "77.0 ± 1.3", "unit": "mU/mg"}, {"measurement": "Activity, cyclohexanone", "setting": "[1]", "value": "27.5 ± 1.4", "unit": "mU/mg"}, {"measurement": "Activity, ethylpyruvate", "setting": "[1]", "value": "18.4 ± 5.9", "unit": "mU/mg"}, {"measurement": "enhancement above maximum kcat of LeuDH-AmDH", "setting": "[2]", "value": "~15", "unit": "fold"}, {"measurement": "kcat, amination of PFPA", "setting": "[2]; 500 mM NH4Cl/NH4OH pH 9.6, 200 μM NADH, apparent", "value": 2.8, "unit": "s⁻¹"}, {"measurement": "Km", "setting": "[2]; 500 mM NH4Cl/NH4OH pH 9.6, 200 μM NADH, read-out: KM, amination of PFPA", "value": 4.37, "unit": "mM"}, {"measurement": "Km", "setting": "[2]; 5 M NH4Cl/NH4OH pH 9.6, 200 μM NADH, read-out: KM value of PFPA", "value": 7.75, "unit": "mM"}, {"measurement": "kcat with all three substrates saturated", "setting": "[2]; aqueous NH4Cl/NH4OH buffer pH 9.6, 25° C.", "value": 6.85, "unit": "s⁻¹"}, {"measurement": "Activity, 1-Boc-piperidone", "setting": "[3]", "value": "7.8 ± 1.1", "unit": "mU/mg"}, {"measurement": "Activity, 2-hexanone", "setting": "[3]", "value": "155.7 mU/mg and 155.7 ± 1.4 mU/mg"}, {"measurement": "Activity, 2-methylcyclohexanone", "setting": "[3]", "value": "19.3 ± 1.1", "unit": "mU/mg"}, {"measurement": "Activity, 3-hexanone", "setting": "[3]", "value": "1.6 mU/mg and 1.6 ± 0.5 mU/mg"}, {"measurement": "Activity, 3-methyl-2-butanone", "setting": "[3]", "value": "72.7 ± 1.4", "unit": "mU/mg"}, {"measurement": "Activity, 3-methylcyclohexanone", "setting": "[3]", "value": "41.1 ± 2.1", "unit": "mU/mg"}, {"measurement": "Activity, 3-pentanone", "setting": "[3]", "value": "1.3 ± 0.0", "unit": "mU/mg"}, {"measurement": "Activity, Benzyloxyacetic acid", "setting": "[3]", "value": "22.6 ± 0.7", "unit": "mU/mg"}, {"measurement": "Activity, benzaldehyde", "setting": "[3]", "value": "31.4 ± 8.7", "unit": "mU/mg"}, {"measurement": "Activity, cyclopentanone", "setting": "[3]", "value": "0.9 ± 0.5", "unit": "mU/mg"}, {"measurement": "Activity, phenoxy-2-propanone", "setting": "[3]", "value": "540.8 ± 6.9", "unit": "mU/mg"}, {"measurement": "Activity, 2-hexanone", "setting": "[3]; listed as K77S/N276L", "value": 155.7, "unit": "mU/mg"}, {"measurement": "Activity, 3-hexanone", "setting": "[3]; listed as K77S/N276L", "value": 1.6, "unit": "mU/mg"}]}]}
